In US20110311550A1 (Scripps Research, published 2011):

Tests used:
[1] = target: T1, E1E2 complex of HCV isolate H77 (genotype 1a), wild type (HCV isolate H77, UniProt P27958 192-383; P27958 384-746); assay: competition ELISA on H77 E1E2; competitor m37 (Fab N1)
[2] = target: T2, vaccinia-expressed E1E2 complex, isolate HCV-1 (genotype 1a) (hepatitis C virus, isolate HCV-1, UniProt P26664 192-383; P26664 384-746); assay: competition ELISA on HCV-1 E1E2; competitor m20 (CBH-2)
[3] = target: T2, vaccinia-expressed E1E2 complex, …; assay: competition ELISA on HCV-1 E1E2; competitor m26 (AP33)
[4] = target: T2, vaccinia-expressed E1E2 complex, …; assay: competition ELISA on HCV-1 E1E2; competitor m22 (CBH-7)
[5] = target: T2, vaccinia-expressed E1E2 complex, …; assay: competition ELISA on HCV-1 E1E2; competitor m5 (AR3B)
[6] = target: E1E2 (Env) of HCV isolate UKN1B12.16 (genotype 1b) on HCVpp (hepatitis C virus, isolate UKN1B12.16); assay: cell-based or functional assay
[7] = target: E1E2 (Env) of HCV isolate UKN2A1.2 (genotype 2a) on HCVpp (hepatitis C virus, isolate UKN2A1.2); assay: cell-based or functional assay
[8] = target: E1E2 (Env) of HCV isolate J6 (genotype 2a) on HCVpp (hepatitis C virus, isolate J6, UniProt P26660 192-383; P26660 384-750); assay: cell-based or functional assay
[9] = target: E1E2 (Env) of HCV isolate H (genotype 1a) on HCVpp (hepatitis C virus, isolate H); assay: cell-based or functional assay
[10] = target: E1E2 (Env) of HCV isolate UKN5.15.7 (genotype 5) on HCVpp (hepatitis C virus, isolate UKN5.15.7); assay: cell-based or functional assay
[11] = target: VSV (control pseudotype virus envelope); assay: cell-based or functional assay
[12] = target: T1, E1E2 complex of HCV isolate H77 …; assay: cell-based or functional assay
[13] = target: E1E2 (Env) of HCV isolate OH8 (genotype 1b) on HCVpp (hepatitis C virus, isolate OH8); assay: cell-based or functional assay
[14] = target: E1E2 (Env) of HCV isolate UKN4.21.16 (genotype 4) on HCVpp (hepatitis C virus, isolate UKN4.21.16); assay: cell-based or functional assay
[15] = target: E1E2 (Env) of HCV isolate UKN2B1.1 (genotype 2b) on HCVpp (hepatitis C virus, isolate UKN2B1.1); assay: cell-based or functional assay
H77 E1E2 mutant H488A = H77 E1E2 mutant H488A (HCV isolate H77, UniProt P27958 192-383; P27958 384-746); assay: ELISA, alanine mutant E1E2
H77 E1E2 mutant W487A = H77 E1E2 mutant W487A (HCV isolate H77, UniProt P27958 192-383; P27958 384-746); assay: ELISA, alanine mutant E1E2
H77 E1E2 mutant Y489A = H77 E1E2 mutant Y489A (HCV isolate H77, UniProt P27958 192-383; P27958 384-746); assay: ELISA, alanine mutant E1E2
H77 E1E2 mutant W420A = H77 E1E2 mutant W420A (HCV isolate H77, UniProt P27958 192-383; P27958 384-746); assay: ELISA, alanine mutant E1E2
H77 E1E2 mutant P525A = H77 E1E2 mutant P525A (HCV isolate H77, UniProt P27958 192-383; P27958 384-746); assay: ELISA, alanine mutant E1E2
H77 E1E2 mutant D533A = H77 E1E2 mutant D533A (HCV isolate H77, UniProt P27958 192-383; P27958 384-746); assay: ELISA, alanine mutant E1E2
[16] = target: T1, E1E2 complex of HCV isolate H77 …; assay: competition ELISA on H77 E1E2; competitor m38 (Fab N2)
[17] = target: T2, vaccinia-expressed E1E2 complex, …; assay: competition ELISA on HCV-1 E1E2; competitor m6 (AR3C)
[18] = target: T2, vaccinia-expressed E1E2 complex, …; assay: competition ELISA on HCV-1 E1E2; competitor m32 (AP320)
[19] = target: T2, vaccinia-expressed E1E2 complex, …; assay: competition ELISA on HCV-1 E1E2; competitor m36 (A4)
[20] = target: T2, vaccinia-expressed E1E2 complex, …; assay: competition ELISA on HCV-1 E1E2; competitor m1 (AR1A)

B1: MAb AR3D (antibody, V domains shown)
VH: LEQSGAEVKKPGSSVKVSCKASGDTFRSYVITWARQAPGQGLEWMGAIIPFFGTTNLAQKFQGRVTITADESTKTVYMDLSSLRSDDTAVYYCAKAGDLSVGGVLAGGVPHLRHFDPWGQGTLVTVSS
VL: ELTQSPGTLSLSPGERATLSCRAGQTVASNSLAWYQHKPGQAPRLLIYGASIRASGIPDRFSGSGSGTDFTLTISRLEPEDFAVYYCQQYGLSSTFGQGTRLEIKR
notes: also called IgG1 of Fab L4
With B1 the “% residual binding” value [1] was 131%, the “% residual binding” value [2] was 51% and the “% residual binding” value [3] was 27%. For the same binder, the “% residual binding” value [4] was 33%, the “% residual binding” value [5] was 15% and the “Neutralizing activity (IC50) on HCVpp” value [6] was 1 µg/mL. The “Neutralizing activity (IC50) on HCVpp” value [7] was 25 µg/mL, the “Neutralizing activity (IC50) on HCVpp” value [8] was 50 µg/mL and the “Neutralizing activity (IC50) on HCVpp” value [9] was 1 µg/mL. The “Neutralizing activity (IC50) on HCVpp” value [10] was 10 µg/mL, the “Neutralizing activity (IC50) on control pseudotype virus” value [11] was over 50 µg/mL and the “Neutralizing activity (IC50) on HCVpp” value [12] was 1 µg/mL. For the same binder, the “Neutralizing activity (IC50) on HCVpp” value [13] was 5 µg/mL, the “Neutralizing activity (IC50) on HCVpp” value [14] was 1 µg/mL and the “Neutralizing activity (IC50) on HCVpp” value [15] was 25 µg/mL. For the same binder, the “binding vs wild-type E1E2” value (H77 E1E2 mutant H488A) was 123%, the “binding vs wild-type E1E2” value (H77 E1E2 mutant W487A) was 119% and the “binding vs wild-type E1E2” value (H77 E1E2 mutant Y489A) was 113%. The “binding vs wild-type E1E2” value (H77 E1E2 mutant W420A) was 68%, the “binding vs wild-type E1E2” value (H77 E1E2 mutant P525A) was 53% and the “binding vs wild-type E1E2” value (H77 E1E2 mutant D533A) was 146%. The “% residual binding” value [16] was 98%, the “% residual binding” value [17] was 13% and the “% residual binding” value [18] was 77%. The “% residual binding” value [19] was 90% and the “% residual binding” value [20] was 43%.
